Target: T1, recombinant BAG3 full-length protein (UniProt O95817 2-575, limits assumed)
T1 construct: mature; also called rBAG3; E. Coli rBAG3
Assay: method for the murine antibody not stated (Example 3, Octet)

T1 sequence (O95817 2-575 limits assumed): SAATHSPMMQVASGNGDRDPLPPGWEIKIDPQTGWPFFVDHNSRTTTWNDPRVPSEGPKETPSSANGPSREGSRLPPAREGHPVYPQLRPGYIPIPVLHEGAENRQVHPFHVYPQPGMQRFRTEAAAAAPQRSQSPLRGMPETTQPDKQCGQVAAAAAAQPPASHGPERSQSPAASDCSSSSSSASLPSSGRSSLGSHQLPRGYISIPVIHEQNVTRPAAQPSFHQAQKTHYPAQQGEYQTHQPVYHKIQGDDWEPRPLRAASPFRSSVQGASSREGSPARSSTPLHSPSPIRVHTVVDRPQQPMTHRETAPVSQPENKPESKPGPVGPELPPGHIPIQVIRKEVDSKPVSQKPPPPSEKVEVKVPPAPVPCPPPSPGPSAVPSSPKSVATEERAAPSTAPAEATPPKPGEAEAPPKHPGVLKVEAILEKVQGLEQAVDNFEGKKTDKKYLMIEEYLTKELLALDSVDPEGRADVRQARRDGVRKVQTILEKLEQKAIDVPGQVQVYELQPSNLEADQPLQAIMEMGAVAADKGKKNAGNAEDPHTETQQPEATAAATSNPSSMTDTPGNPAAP

Kd: 1 pM
B1: AC-2 murine antibody (antibody, V domains shown)
VH: EVQLQQSGAELVKPGASVKLSCTASGFNIKDTYMYWVKQRPEQGLEWIGGVDPANGNTRYDPKFQGKATLTADTSSSTAYLQLSSLTSEDTAVYYCGRDGAMDYWGQGTSVTVSS
VL: DIVMSQSPSSLAVSVGEKVTMSCKSSQSLLYSSNQKNYLAWHQQKPGQSPKLLIYWASTRESGVPDRFTGSGSGTDFTLTISSVKAEDLAIYYCQQYYTYPLTFGAGTKLELK
notes: Murine hybridoma antibody; also called anti-BAG3 mouse antibody (AC2); murine anti-BAG AC-2 antibody
